Legend:
[1] = target: T1, insulin receptor tyrosine kinase (IRK) (Homo sapiens, UniProt P06213); assay: BVR phosphorylation by the insulin receptor tyrosine kinase (IRK), in vitro [32P]-ATP assay; format: biochemical; details: for time course of phosphorylation by IRK: incubation with IRK up to 3-4 h, pH 8.0
T1 construct: the 48 kDa cytoplasmic domain of the β-subunit of IRK; purchased Biomol International (Plymouth, Pa.)
Protocol: BVR phosphoiylation by the insulin receptor tyrosine kinase (IRK): Phosphorylation of BVR by IRK was examined using GST-HBVR fusion protein and the 48 kDa cytoplasmic domain of the β-subunit of IRK. BVR (5 μg) was incubated in 50 μl of IRK kinase buffer containing 50 mM HEPES (pH 8.0), 20 mM MgCl2, 1 mM DTT in the presence of 0.05 μg IRK and 10 μM ATP labeled with 10 μCi [γ-^32P]-ATP. The reaction was started with the addition of labeled ATP and incubated for 2-4 h. Reactions were terminated by addition of Laemmli sample buffer and boiled for 3 min. Samples were subjected to 8% SDS-PAGE and transferred to PVDF membranes for autoradiography.

[2] = Reductase activity of purified BVR; format: biochemical, human; details: purified BVR not phosphorylated by IRK
Protocol: Measurement of BVR Reductase Activity: 293A cells treated with insulin were lysed in buffer containing a protease inhibitor cocktail and phosphatase inhibitors (10 mM NaF, […]). BVR activity was measured at pH 6.7 using NADH as the cofactor as described previously (Huang et al., J. Biol. Chem. 264:7844-9 (1989), which is hereby incorporated by reference in its entirety). The rate of conversion of biliverdin to bilirubin was determined as the increase in absorbance at 450 nm at 25° C. Specific activity is expressed as μmol of bilirubin/min/mg of protein.

[3] = tested on: human BVR; assay: BVR autophosphorylation; format: biochemical; details: pH 8.4, 30 mM MnCl2, 2 h, 30° C.
Protocol: BVR autophosphorylation and kinase activity: To detect autophosphorylation of BVR, GST-hBVR of wild type (wt) and mutant variants were incubated in 50 mM HEPES buffer (pH 8.4) in the presence of 30 mM MnCl2 and 1 mM DTT for 2 h at 30° C. The reaction was started with the addition of 10 μM ATP labeled with 10 μCi [γ-^32P]-ATP and was stopped with the addition of Laemmli sample buffer. Samples were boiled for 3 min and applied to a 8% SDS-PAGE gels, transferred to a PVDF membrane, and then visualized by autoradiography. To measure kinase activity, GST-BVR (5 μg) was incubated in 50 μl kinase buffer containing 50 mM HEPES buffer (pH 8.4), 20 mM MgCl2, 30 mM MnCl2, 1 mM DTT and 10 μM ATP labeled with 10 μCi [γ-^32P]-ATP in the presence of 5 μg substrates: IRS-1 or Raytide or poly glu/tyr (4:1) for 2 h at 30° C. The reaction was started with the addition of ATP and terminated by adding 120 μl 10% H3PO4. 100 μl aliquots were directly transferred to P81 Whatman filters which were subsequently washed extensively in 0.75% phosphoric acid at room temperature. Finally, the filters were submerged in acetone for 5 min, dried, and retained counts were measured using a Beckman LS 6500 liquid scintillation counter (Beckman Coulter, Fullerton, Calif.).

[4] = tested on: 293A cells; assay: Insulin-mediated glucose uptake (2-deoxy 1-[3H] glucose); format: cell-based, human; details: insulin 15 min, vs controls infected with vector alone, p≦0.05
Protocol: Cell culture and transfection and infection of 293A: 293A cells were grown in 10 cm-plates with Dulbecco's Modified Eagle Medium (DMEM) (Invitrogen, Carlsbad, Calif.) containing 10% fetal bovine serum and 1% penicillin-G/streptomycin for 24 h or until a confluency of 70% was reached. Cells were subsequently transfected with 4 μg of pcDNA3 mutant BVR Y^198 using Transfectin Lipid Reagent (Bio-Rad, Hercules, Calif.), according to the manufacturer's procedure and incubated for 48 h at 37° C. In addition, non-transfected cells were infected with pSuper-Retro-siBVR for 24 h in the presence of 4 μg/ml polybrene. Cells were starved in serum-free DMEM 16 h prior to insulin treatment (50 nM).
Glucose uptake: Glucose uptake was assessed by measuring 2-deoxy 1-[^3H] glucose (2DG) absorption as described by (Braiman et al. (Mol. Endocrinol. 13:2002-12 (1999)), which is hereby incorporated by reference), with minor modifications. Briefly, after insulin treatment, cells in 6-wells plates were incubated in 1 ml PBS containing 5 mM glucose and 1 μCi/ml 2DG for 15 min. Solution was aspirated rapidly and wells were washed 3 times with cold PBS. Cells were solubilized by addition of 200 μl 1% (w/v) SDS. Radioactivity was measured and data was normalized to protein concentration. Non-specific uptake was determined in the presence of 200 mM of glucose and was subtracted from the total uptake. […]

T1 sequence (P06213 980-1382 limits assumed): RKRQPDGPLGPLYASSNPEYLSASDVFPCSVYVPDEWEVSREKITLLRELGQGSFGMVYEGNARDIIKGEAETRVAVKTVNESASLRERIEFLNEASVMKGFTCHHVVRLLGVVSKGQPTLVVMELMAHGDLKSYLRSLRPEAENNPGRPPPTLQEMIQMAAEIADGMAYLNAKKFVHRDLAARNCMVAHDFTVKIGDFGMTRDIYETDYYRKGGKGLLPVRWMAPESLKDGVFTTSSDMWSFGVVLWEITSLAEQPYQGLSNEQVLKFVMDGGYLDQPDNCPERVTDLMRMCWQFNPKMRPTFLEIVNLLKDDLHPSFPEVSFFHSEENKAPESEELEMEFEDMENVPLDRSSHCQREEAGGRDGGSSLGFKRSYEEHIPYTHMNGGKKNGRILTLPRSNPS

B1: biliverdin reductase (protein)
chain: MNAEPERKFGVVVVGVGRAGSVRMRDLRNPHPSSAFLNLIGFVSRRELGSIDGVQQISLEDALSSQEVEVAYICSESSSHEDYIRQFLNAGKHVLVEYPMTLSLAAAQELWELAEQKGKVLHEEHVELLMEEFAFLKKEVVGKDLLKGSLLFTSDPLEEDRFGFPAFSGISRLTWLVSLFGELSLVSATLEERKEDQYMKMTVCLETEKKSPLSWIEEKGPGLKRNRYLSFHFKSGSLENVPNVGVNKNIFLKDQNIFVQKLLGQFSEKELAAEKKRILHCLGLAEEIQKYCCSRK
modifications: left off: a dimerising Fc or GST
In the case of B1, the “time course of phosphorylation by IRK” value [1] is reported as “detected when assessed at 1 h, and gradually increased up to 4 h” and the “BVR reductase activity of the control” value [2] is reported as 43.8 μmol per min per mg.

B2: Y^198: human BVR point mutant, DQYMK to DQFMK (protein, UniProt P53004 3-296, looked up, variant Y198F)
Biliverdin reductase A: AEPERKFGVVVVGVGRAGSVRMRDLRNPHPSSAFLNLIGFVSRRELGSIDGVQQISLEDALSSQEVEVAYICSESSSHEDYIRQFLNAGKHVLVEYPMTLSLAAAQELWELAEQKGKVLHEEHVELLMEEFAFLKKEVVGKDLLKGSLLFTAGPLEEERFGFPAFSGISRLTWLVSLFGELSLVSATLEERKEDQFMKMTVCLETEKKSPLSWIEEKGPGLKRNRYLSFHFKSGSLENVPNVGVNKNIFLKDQNIFVQKLLGQFSEKELAAEKKRILHCLGLAEEIQKYCCSRK
For B2, the “time course of phosphorylation by IRK” value [1] was “less effective substrate for IRK”, the “decrease of BVR phosphorylation by IRK caused by point mutation” value ([1]; mutant vs wtBVR, IRK 2 h at 30° C.) was roughly 70% and the “autophosphorylation of BVR mutants” value [3] was “did not result in significant changes in autophosphorylation of BVR”. The insulin-mediated glucose uptake [4] was “increased significantly”.

From patent US8455427B2, “Methods of modifying insulin signaling using biliverdin reductase” (University of Rochester, priority 2005, dated 2013)
